According to US20220332804A1 (CSL INNOVATION, published 2022):
Where a chain is given by its changes, count along the chain named.

What was measured:
Assay in all cases: SPR, mAb captured, C2 mutant analyte;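 note: Anti-C2 mAbs captured on goat anti-human IgG Biacore CM5 chips, alanine or serine C2 surface mutants flowed over at 37 °C, double-referenced sensorgrams fitted to a 1:1 binding model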
human C2 S278A = target: T1, human C2 S278A (human, UniProt P06681 21-752)
T1 sequence: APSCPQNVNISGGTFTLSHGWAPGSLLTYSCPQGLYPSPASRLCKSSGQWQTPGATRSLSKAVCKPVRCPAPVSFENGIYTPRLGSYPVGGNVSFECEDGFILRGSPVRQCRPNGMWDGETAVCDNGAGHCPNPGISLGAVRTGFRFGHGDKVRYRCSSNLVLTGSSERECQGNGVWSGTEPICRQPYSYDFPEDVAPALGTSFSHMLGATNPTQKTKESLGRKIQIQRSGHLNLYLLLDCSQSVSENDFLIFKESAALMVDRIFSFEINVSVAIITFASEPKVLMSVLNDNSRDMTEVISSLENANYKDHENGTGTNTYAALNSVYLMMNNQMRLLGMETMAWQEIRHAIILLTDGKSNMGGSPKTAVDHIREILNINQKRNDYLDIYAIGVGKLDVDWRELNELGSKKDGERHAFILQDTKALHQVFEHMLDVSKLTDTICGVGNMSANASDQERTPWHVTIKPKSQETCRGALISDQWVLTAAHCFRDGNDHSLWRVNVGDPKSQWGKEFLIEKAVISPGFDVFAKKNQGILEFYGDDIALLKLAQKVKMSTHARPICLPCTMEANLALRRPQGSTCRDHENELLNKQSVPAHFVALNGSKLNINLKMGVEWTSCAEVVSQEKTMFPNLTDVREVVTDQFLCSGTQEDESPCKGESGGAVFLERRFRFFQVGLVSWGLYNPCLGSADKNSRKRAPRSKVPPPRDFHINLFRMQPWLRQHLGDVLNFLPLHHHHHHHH

human C2 N403A = target: T2, human C2 N403A (human, UniProt P06681 21-752)
T2 sequence: T1 sequence with A258S, N383A

human C2 D419A = target: T3, human C2 D419A (human, UniProt P06681 21-752)
T3 sequence: T1 sequence with A258S, D399A

human C2 S428A = target: T4, human C2 S428A (human, UniProt P06681 21-752)
T4 sequence: T1 sequence with A258S, S408A

Kd (human C2 S278A): 34.5 nM
Kd (human C2 N403A): 29.6 nM
Kd (human C2 D419A): 70.7 nM
Kd (human C2 S428A): 58.6 nM
B1: RF16-214 (antibody, V domains shown)
VH: EVQLLESGGGLVQPGGSLRLSCAASGFTFSWYQMMWVRQAPGKGLEWVSRIYPSGGGTAYADSVKGRFTISRDNSKNTLYLQMNSLRAEDTAVYYCARDAGYGDNWGQGTLVTVSS
VL: QSALTQPPSVSVSPGQTASITCSGDKLGEKYASWYQQKAGQSPVMVIYQDRKRPSGIPERFSGSNSGNTATLTISGTQAMDEADYYCQAWDTRAVVFGGGTKLTVLG
